Data as given in patent US20220387586A1 (Hoffmann-La Roche, published 2022).
Residue numbers refer to the chain shown, from its start.

Legend:
biotinylated-Lag3 [1] = target: T1, biotinylated-Lag3 (UniProt P18627 23-450, limits assumed, biotinylated); test: ELISA, inhibition of biotinylated-Lag3 binding to MHC-II on A375 cells (competitor MHC-II); first of two numbers; first of two series in the cell
T1 construct: Probably a human LAG3 ECD construct; also called Lag3 (MHCII/ELISA)
T1 sequence (looked up): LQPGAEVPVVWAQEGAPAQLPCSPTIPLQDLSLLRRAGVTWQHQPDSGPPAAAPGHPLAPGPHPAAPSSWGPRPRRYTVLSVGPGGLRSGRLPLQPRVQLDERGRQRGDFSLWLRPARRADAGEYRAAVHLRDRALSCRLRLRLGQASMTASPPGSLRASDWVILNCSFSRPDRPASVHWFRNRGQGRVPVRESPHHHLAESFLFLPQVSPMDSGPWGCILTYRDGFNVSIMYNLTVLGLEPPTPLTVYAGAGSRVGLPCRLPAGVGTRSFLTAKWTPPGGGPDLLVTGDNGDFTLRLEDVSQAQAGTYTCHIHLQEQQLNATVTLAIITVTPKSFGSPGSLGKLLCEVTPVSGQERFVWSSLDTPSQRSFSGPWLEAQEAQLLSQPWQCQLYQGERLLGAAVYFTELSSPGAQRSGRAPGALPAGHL

biotinylated-Lag3 [2] = target: T1, biotinylated-Lag3; test: ELISA, inhibition of biotinylated-Lag3 binding to MHC-II on A375 cells (competitor MHC-II); second of two numbers; second of two series in the cell (the series of '/0.4' and '/1.0')
cynomolgus LAG3 on cells [3] = target: T2, cynomolgus LAG3 on cells (cynomolgus); test: flow cytometry on HEK293F cells transfected with cyno-LAG-3, antibody 10 µg/ml
T2 construct: whole, on cells; also called cyno-LAG-3; cynoLAG3
Method: 1.5×10⁵ cells/well were seeded into 96-well plates. […] HEK cells were incubated with indicated antibodies for 45 min on ice, washed twice with 200 μl ice-cold PBS buffer containing 2% FBS, before secondary antibody (APC-labelled goat anti-human IgG-kappa, Invitrogen, cat.no. #MH10515) was added (1:50 diluted in FACS-Puffer/well) and further incubated for 30 min on ice. Cells were again washed twice with 200 μl ice-cold PBS/2% FBS buffer before samples were finally resuspended in 150 μl FACS buffer and binding was measured on FACS CANTO-II HTS Module.

[4] = target: T3, human Fc tagged human Lag3 extra cellular domain (human, UniProt P18627 29-450, biotinylated in the epitope binning, the SA CAP SPR and the FACS competition assay); test: FACS, inhibition of biotinylated Lag3:Fc binding to MHC-II on A375 cells (competitor MHC-II); antibody 10 µg/ml
T3 construct: In-house fusion; also called huLag3-Fc; biotinylated, huFc-tagged huLag3; not shown: human Fc tag
T3 sequence: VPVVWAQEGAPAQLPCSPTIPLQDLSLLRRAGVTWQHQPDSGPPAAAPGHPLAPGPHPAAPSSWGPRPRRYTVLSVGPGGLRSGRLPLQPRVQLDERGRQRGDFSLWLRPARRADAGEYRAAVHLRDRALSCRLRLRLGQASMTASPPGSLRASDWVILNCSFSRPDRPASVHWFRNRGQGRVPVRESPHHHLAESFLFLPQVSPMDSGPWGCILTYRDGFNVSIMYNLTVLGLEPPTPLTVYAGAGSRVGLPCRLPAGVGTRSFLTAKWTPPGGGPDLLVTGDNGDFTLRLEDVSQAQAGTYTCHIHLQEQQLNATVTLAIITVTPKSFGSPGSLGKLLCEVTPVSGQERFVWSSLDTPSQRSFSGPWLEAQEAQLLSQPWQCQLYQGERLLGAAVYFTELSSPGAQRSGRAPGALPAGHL
Method: This analysis was studied in a FACS competition experiment: A375 cells (ATCC, #CRL-1619) were cultured for 2-3 passages in EM Eagle's medium supplemented with EBSS (PAN, cat.no. #P04-00509), 10% FBS, 2 mM L-Glutamin, 1×NEAA and 1× Sodium Pyruvate. All antibodies, were diluted in FACS buffer to a final concentration of 20 μg/ml in 25 μl (in 96well U-bottom plates). […] A375 cells were washed with PBS and adjusted to 3×10⁶ cells/ml in PBS. 100 μl were seeded per well in a 96well V-bottom plate. Plates were centrifuged and supernatant was removed. […] After this, cells were washed with 200 μl FACS buffer. […] After staining, cells were again washed and then transferred in 150 μl FACS buffer (PBS/2% FBS) to a U-bottom plate and analyzed on a FACS Canto-II using an HTS module.
All antibodies were used at 10 μg/ml final concentration.

[5] = target: T4, LAG3 on cells (recombinant CHO cells expressing Lag3) (human, UniProt P18627 29-525); test: cell-based or functional assay
T4 sequence: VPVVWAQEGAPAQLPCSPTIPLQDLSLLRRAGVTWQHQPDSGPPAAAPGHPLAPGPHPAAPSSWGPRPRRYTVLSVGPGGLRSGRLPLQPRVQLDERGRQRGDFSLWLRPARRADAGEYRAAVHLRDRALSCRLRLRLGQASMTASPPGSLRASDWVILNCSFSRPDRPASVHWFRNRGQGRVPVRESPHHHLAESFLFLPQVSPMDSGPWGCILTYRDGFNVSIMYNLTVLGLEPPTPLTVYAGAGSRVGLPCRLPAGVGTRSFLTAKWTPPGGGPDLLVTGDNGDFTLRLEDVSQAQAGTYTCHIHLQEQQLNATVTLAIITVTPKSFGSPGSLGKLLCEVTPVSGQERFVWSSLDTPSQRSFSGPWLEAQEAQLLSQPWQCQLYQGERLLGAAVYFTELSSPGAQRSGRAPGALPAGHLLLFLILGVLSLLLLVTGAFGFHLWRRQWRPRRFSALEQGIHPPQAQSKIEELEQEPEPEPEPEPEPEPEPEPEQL

cynomolgus LAG3 on cells [6] = target: T2, cynomolgus LAG3 on cells; test: flow cytometry on activated cynomolgus PBMC, 10 µg/ml (only 2nd Ab (hu): 7.62)
Method: Thus, cynomolgus peripheral blood mononuclear cells (PBMC) were prepared from fresh cynomolgus blood and were then activated by CD3/CD28 pre-treatment (1 μg/ml) for 2-3 days. […] After staining, cells were washed two times with PBS/2% FCS and analyzed on a FACS Fortessa (BD).

[7] = target: T4, LAG3 on cells (recombinant CHO cells …); test: cell ELISA on recombinant CHO cells expressing Lag3
Method: After washing (1×90 μl in PBST) cells were fixed by addition of 30 μl/well glutaraldehyde to a final concentration of 0.05% (Sigma Cat.No: G5882), 10 min at room temperature. After washing (3×90 μl/well with PBST-buffer) 25 μl/well goat anti-Human Ig κ chain antibody-HRP conjugate (Milipore, AP502P) was added in a 1:1000 dilution and incubated at RT for 1 h. After washing (3×90 μl/well with PBST-buffer) 25 μl/well TMB substrate (Roche, 11835033001) was added and incubated for 6-10 min. Measurement took place on a Tecan Safire 2 instrument at 370/492 nm.

[8] = target: T5, biotinylated PD1-ECD-AviHis (human, UniProt Q15116 25-170, biotinylated); test: ELISA (hu PD1, as described above)
T5 construct: also called huPD1; hu PD1; not shown: Avi-His tag
Method: After washing (3×90 μl/well with PBST-buffer) 25 μl/well goat-anti-human H+L-POD (JIR, JIR109-036-088)/Sheep-anti-mouse-POD (GE Healthcare; NA9310) was added in 1:2000/1:1000 dilution and incubated at RT for 1 h on shaker. After washing (3×90 μl/well with PBST-buffer) 25 μl/well TMB substrate (Roche Catalogue No. 11835033001) was added and incubated until OD 2-3. Measurement took place at 370/492 nm.

hu PD1-ECD [9] = target: T6, hu PD1-ECD (human, UniProt Q15116 25-170); test: SPR (Biacore T200), antibody captured by anti-human IgG, hu PD1-ECD as analyte, 25 °C, 1:1 Langmuir fit
T6 construct: SPR analyte; also called human PD1-ECD
Method: Therefore, an anti-human IgG was immobilized by amine coupling to the surface of a (Biacore) CM5 sensor chip. […] The sensor chip surface was regenerated after each analysis cycle. The equilibrium constant and kinetic rate constants were finally gained by fitting the data to a 1:1 langmuir interaction model.
(§1) The samples were injected for 20 seconds with a concentration of 10 nM and bound to the second flow cell.
Finally the double referenced data was fitted to a 1:1 Langmuir interaction model with the Biacore T200 Evaluation Software.

[10] = target: T5, biotinylated PD1-ECD-AviHis; test: ligand replacing ELISA; row head 'IC50 PD-L1, 2 [nM]' (ligand not told apart); competing ligand printed only as 'PD-L1, 2'
hu PD1-ECD [11] = target: T6, hu PD1-ECD; test: SPR; row head 'Affinity KD 37° C.'; second of two numbers, equal to the 25 °C value of Table 3; second of the two numbers in the cell; only 37° C. is printed, split not explained
Method: as §1

hu PD1-ECD [12] = target: T6, hu PD1-ECD; test: SPR; row head 'Affinity KD 37° C.'; first of two numbers; first of the two numbers in the cell, row head 37° C.
[13] = target: T3, human Fc tagged human Lag3 extra …; test: SPR (Biacore T200), huLag3-Fc captured, antibody Fab fragment as analyte, 25 °C, 1:1 Langmuir fit; monovalent (first value line); bivalent line is tbd
Method: (§2) Therefore two flow cells of a C1 biosensor chip were prepared in a Biacore T200 by immobilizing neutravidin, diluted to 25 μg/ml in acetate buffer pH 4.5, onto it using the ‘immobilization wizard’. […] Then, CaptureSelect™ Biotin Anti-IgG-Fc (Human) Conjugate was bound to the neutravidin, using a 20 μg/ml dilution in running buffer (HBS-EP+, GE Healthcare).
(§3) The method itself consisted of four commands per cycle. […] Second command: sample injection for 120s followed by a 1200s long dissociation at a flow speed of 30 μl/min. Third and fourth command: regeneration by injecting Glycine-HCl pH 1.5 for 30 seconds.

[14] = target: T3, human Fc tagged human Lag3 extra …; test: SPR (Biacore T200), huLag3-Fc captured, antibody Fab fragment as analyte, 25 °C
Method: as §2, §3

[15] = target: T3, human Fc tagged human Lag3 extra …; test: SPR (Biacore T200), huLag3-Fc captured, antibody Fab fragment as analyte, 25 °C, 1:1 Langmuir fit
Method: as §2, §3

T6 sequence (Q15116 25-170 limits assumed): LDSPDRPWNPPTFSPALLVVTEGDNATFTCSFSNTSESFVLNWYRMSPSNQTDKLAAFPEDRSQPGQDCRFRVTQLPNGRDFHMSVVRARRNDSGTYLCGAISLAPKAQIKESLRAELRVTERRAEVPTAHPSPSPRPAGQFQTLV
T5 sequence (Q15116 25-170): as the sequence (Q15116 25-170 limits assumed) above

B1: Reference LAG3 antibody MDX25F7 (antibody, V domains shown)
VH: QVQLQQWGAGLLKPSETLSLTCAVYGGSFSDYYWNWIRQPPGKGLEWIGEINHNGNTNSNPSLKSRVTLSLDTSKNQFSLKLRSVTAADTAVYYCAFGYSDYEYNWFDPWGQGTLVTVSS
VL: EIVLTQSPATLSLSPGERATLSCRASQSISSYLAWYQQKPGQAPRLLIYDASNRATGIPARFSGSGSGTDFTLTISSLEPEDFAVYYCQQRSNWPLTFGQGTNLEIK
notes: also called MDX-25F7 (25F7); Medarex 25F7
- IC50 (biotinylated-Lag3 [1]): 0.8 nM
- IC50 (biotinylated-Lag3 [2]): 0.6 nM
- % pos. (cynomolgus LAG3 on cells [3]): 41.2%
- GeoMean (cynomolgus LAG3 on cells [3]): 3060
- % Inhibition [4]: 70%
- EC50 [nM] in Jurkat LAG3 + SED + Raji (NFAT luciferase), 2nd assay [5]: 8.6 nM
- % positive cyno cells (PBLs) after CD3/CD28 activation (cynomolgus LAG3 on cells [6]): 22.1%
- CHO-cell ELISA inflexion point [7]: 75 ng/mL

B2: chimeric PD1-0103 (antibody, human IgG1, V domains shown)
VH: EVILVESGGGLVKPGGSLKLSCAASGFSFSSYTMSWVRQTPEKRLDWVATISGGGRDIYYPDSVKGRFTISRDNAKNTLYLEMSSLMSEDTALYYCVLLTGRVYFALDSWGQGTSVTVSS
VL: KIVLTQSPASLPVSLGQRATISCRASESVDTSDNSFIHWYQQRPGQSPKLLIYRSSTLESGVPARFSGSGSRTDFTLTIDPVEADDVATYYCQQNYDVPWTFGGGTKLEIK
notes: also called chiPD1-0103
- EC50 [8]: 0.2 nM
- Kd (hu PD1-ECD [9]): 0.8 nM
- koff (hu PD1-ECD [9]): 0.000307 s⁻¹
- kon (hu PD1-ECD [9]): 386000 M⁻¹ s⁻¹
- IC50 [10]: 1.35 nM
- Kd (hu PD1-ECD [11]): 0.8 nM
- Kd (hu PD1-ECD [12]): 2 nM

B3: aLAG3(0414) Fab fragment (Fab, V domains shown)
VH: EVQLLESGGGLVQPGGSLRLSCAASGFIFDDYTMNWVRQAPGKGLEWVAVISWDGGGTYYTDSVKGRFTISRDDFKNTLYLQMNSLRAEDTAVYYCAKGLTDTTLYGSDYWGQGTLVTVSS
VL: DIQMTQSPSSLSASVGDRVTITCRASQSISSYLNWYQQKPGKAPKLLIYAASTLQSGVPSRFSGSGSGTDFTLTISSLQPEDFATYYCQQTYSSPLTFGGGTKVEIK
- Kd [13]: 0.463 nM
- koff [14]: 0.000195 s⁻¹

B4: aLAG3(0416) Fab fragment (Fab, V domains shown)
VH: EVQLVESGGGLVQPGGSLRLACAASGFTFSDYAMSWVRQAPGKGLEWVSGIDNSGYYTYYTDSVKGRFTISRDDVKNTLYLQMNSLRAEDTAVYLCTKTHSGLIVNDAFDIWGQGTMVTVSS
VL: B3 VL with M4L, A50D, T53S, Q55E, F71A, T91S, S94T
- Kd [15]: 0.0282 nM
- koff [14]: 0.000221 s⁻¹
